From PMC7891125 (Cell, 2021) come the findings set out here.

The experiment concerns the target T1, SARS-Cov2 Spike ectodomain for structural analysis (SARS-CoV-2 Wuhan-Hu-1 (MN908947), UniProt P0DTC2, RRAR > GSAS at residues 682-685 | KV > PP at residues 986-987).
T1 construct: also called trimeric spike
The experiment can be described thus: cryo-EM structure; spike (S ~0.6 μm) with Fab or IgG (1:6 molar ratio), applied to the grid almost immediately. To be noted: both partners purified.

B1: Strep-tagged Fab316 (Fab, V domains shown)
VH: not shown
VL: QAVLTQPPSASGSPGQSVTISCTGTSSDVGGYNYVSWYQQHPGKAPKLMIYEVSKRPSGVPDRFSGSKSGNTASLTVSGLQAEDEADYYCSSYAGSNHWVFGGGTKLTVL
Turning to B1, the “stoichiometry N” value stood at 3 Fabs/trimer.

B2: Strep-tagged Fab150 (Fab, V domains shown)
VH: QVQLVESGGGLIQPGGSLRLSCAASGVTVSSNYMSWVRQAPGKGLEWVSIIYSGGTTYYADSVKGRFTISRDSSMNTLYLQMNSLRAEDTAVYYCARDLMVYGIDVWGQGTTVTVSS
VL: EIVMTQSPSSLSASVGDRVTITCRASQGISSYLAWYQQKPGKAPKLLIYAASTLQSGVPSRFSGSGSGTDFTLTISSLQPEDFATYYCQQLDSYPPGYTFGQGTKVDIK
notes: source: HEK293T, transient transfection, purified (Strep-Tactin)
On to B2, for which the binding result is “binds”.

B3: Strep-tagged Fab88 (Fab, V domains shown)
VH: QLQLQESGPGLVKPSQTLSLTCTVSGGSISSGSYNWTWIRQPAGKGLEWIGRIYNSGSTNYNPSLKSRVTISVDTSKNQLSLKVRSVTAADTAVYYCARHCSGGTCYPKYYYGMDVWGQGTTVTVSS
VL: QSALTQPPSVSEAPRQRVTISCSGSSSNIGNNAVNWYQQFPGKAPKLLIYYDDLLPSGVSDRFSGSKSGTSASLAISGVQSEDEADYYCAAWDDSLNVVVFGGGTKLTVL
notes: as for B2
For B3, the “stoichiometry N” value was found to be 3 Fabs/trimer.

B4: Strep-tagged Fab 158 (Fab, V domains shown)
VH: EVQLLESGGDLIQPGGSLRLSCAASGVTVSSNYMSWVRQAPGKGLEWVSIIYPGGSTFYADSVKGRFTISRDNSKNTLYLQMHSLRAEDTAVYYCARDLGSGDMDVWGKGTTVTVSS
VL: DIVMTQSPSFLSASVGDRVTITCRASQGISSYLAWYQQKPGKAPKLLIQAASTLQSGVPSRFSGSGSGTEFTLTISSLQPEDFATYYCQQLNSYRYTFGQGTKVEIK
notes: also called Fab58 (as printed in the crystallization paragraph); source: HEK293T, transient transfection, purified (Strep-Tactin)
For B4, the binding result was “binds”.

B5: Fab 253H165L (Fab, V domains shown)
VH: not shown
VL: DIVMTQSPGTLSLSPGERATLSCRASQSVRSSYLAWYQQKPGQAPRLLIYGASRRGTGIPDRFSGSGSGTDFTLTISRLEPEDFAVYYCQQYGSSPWTFGQGTKVEIK
notes: also called chimera 253H165L
Take B5: the binding result is given as “binds”.
